Laboratory results reported in patent US12589164.

Assays:
[1] = system: peptide probe with CM HQSRSGPWGAL (SEQ ID NO: 649)
[2] = system: peptide probe with CM HQSRSGPAGLL (SEQ ID NO: 639)
[3] = system: (MCA)-Ser-Pro-Trp-Gly-Leu-His-Gln-Ser-Arg-Gly-Lys (DNP)-D-Arg (SEQ ID NO: 663)
[4] = system: peptide probe with CM HQSRSGAWGLL (SEQ ID NO: 647)
[5] = system: peptide probe with CM HQSRAGPWGLL (SEQ ID NO: 645)
[6] = system: (MCA)-His-Gln-Ser-Arg-Ser-Ala-Ile-Ala-Leu-Gly-Ser-Lys (DNP)-D-Arg (SEQ ID NO: 655)
[7] = system: (MCA)-His-Gln-Ser-Arg-Ser-Gly-Pro-Trp-Gly-Leu-X1-Lys (DNP)-D-Arg (SEQ ID NO: 659) where X1 is absent
[8] = system: D-Arg-Lys (DNP)-Ala-Ile-Ala-Leu-His-Gln-Ser-Arg-Ser-Lys (MCA)-D-Arg (SEQ ID NO: 658)
[9] = system: (MCA)-Ser-Pro-Trp-Gly-Leu-His-Gln-Ser-Arg-Ser-Lys (DNP)-D-Arg (SEQ ID NO: 657)
[10] = system: (MCA)-His-Gln-Ser-Arg-Ser-Ala-Ile-Ala-Leu-X1-Gly-Lys (DNP)-D-Arg (SEQ ID NO: 654) where X1 is Y
[11] = system: peptide probe with CM HASRSGPWGLL (SEQ ID NO: 642)
[12] = system: (MCA)-His-Gln-Ser-Arg-Ser-Pro-Trp-Gly-Gly-Ser-Lys (DNP)-D-Arg (SEQ ID NO: 661)
[13] = system: peptide probe with CM HQSASGPWGLL (SEQ ID NO: 644)
[14] = system: (MCA)-His-Gln-Ser-Arg-Pro-Trp-Gly-Leu-Gly-Ser-Lys (DNP)-D-Arg (SEQ ID NO: 660)
[15] = system: (MCA)-His-Gln-Ser-Arg-Ser-Pro-Trp-Gly-Leu-Gly-Lys (DNP)-D-Arg (SEQ ID NO: 665)
[16] = system: peptide probe with CM HQSRSGPWGLA (SEQ ID NO: 650)
[17] = system: peptide probe with CM HQSRSAPWGLL (SEQ ID NO: 646)
[18] = system: peptide probe with CM HQSRSGPWALL (SEQ ID NO: 648)
[19] = system: (MCA)-His-Gln-Ser-Arg-Ser-Ala-Ile-Ala-Leu-X1-X2-Lys (DNP)-D-Arg (SEQ ID NO: 653) where X1 is Y and X2 is A
[20] = system: peptide probe with CM AQSRSGPWGLL (SEQ ID NO: 641)
[21] = system: peptide probe with CM HQARSGPWGLL (SEQ ID NO: 643)
[22] = system: (MCA)-Ser-Pro-Trp-Gly-Leu-His-Gln-Ser-Lys-Ser-Lys (DNP)-D-Arg (SEQ ID NO: 664)

Chain of MMP9 (chain, as listed by the source): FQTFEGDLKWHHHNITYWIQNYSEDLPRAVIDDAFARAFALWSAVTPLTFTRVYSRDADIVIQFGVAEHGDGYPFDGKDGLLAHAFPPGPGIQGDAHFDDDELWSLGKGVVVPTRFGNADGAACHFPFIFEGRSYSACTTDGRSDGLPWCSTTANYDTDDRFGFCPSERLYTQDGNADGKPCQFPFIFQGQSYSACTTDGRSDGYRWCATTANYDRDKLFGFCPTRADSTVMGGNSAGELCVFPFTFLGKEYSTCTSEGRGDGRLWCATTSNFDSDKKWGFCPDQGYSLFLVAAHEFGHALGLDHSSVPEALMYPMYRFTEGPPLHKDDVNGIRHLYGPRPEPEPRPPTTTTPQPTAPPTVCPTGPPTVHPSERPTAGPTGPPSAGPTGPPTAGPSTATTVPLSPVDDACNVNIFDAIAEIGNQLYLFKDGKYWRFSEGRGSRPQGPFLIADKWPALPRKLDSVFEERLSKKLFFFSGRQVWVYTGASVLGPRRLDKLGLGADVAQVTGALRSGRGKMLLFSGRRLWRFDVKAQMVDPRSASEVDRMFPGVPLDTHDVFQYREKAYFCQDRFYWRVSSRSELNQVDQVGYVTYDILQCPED

Substance: MMP9
- Probe Cleavage (pM/s) [1]: 5.9 pM/s
- Probe Cleavage (pM/s) [2]: 13900 pM/s
- Probe Cleavage (pM/s) [3]: 18600 pM/s
- Probe Cleavage (pM/s) [4]: 436 pM/s
- Probe Cleavage (pM/s) [5]: 7440 pM/s
- Probe Cleavage (pM/s) [6]: 41.9 pM/s
- Probe Cleavage (pM/s) [7]: 705 pM/s
- Probe Cleavage (pM/s) [8]: 2550 pM/s
- Probe Cleavage (pM/s) [9]: 5150 pM/s
- Probe Cleavage Kcat/KM [9]: 120000 M⁻¹ s⁻¹
- Probe Cleavage (pM/s) [10]: 328 pM/s
- Probe Cleavage Kcat/KM [10]: 57000 M⁻¹ s⁻¹
- Probe Cleavage (pM/s) [11]: 6470 pM/s
- Probe Cleavage (pM/s) [12]: 86.5 pM/s
- Probe Cleavage (pM/s) [13]: 5410 pM/s
- Probe Cleavage (pM/s) [14]: 9600 pM/s
- Probe Cleavage (pM/s) [15]: 372 pM/s
- Probe Cleavage Kcat/KM [15]: 11000 M⁻¹ s⁻¹
- Probe Cleavage (pM/s) [16]: 6810 pM/s
- Probe Cleavage (pM/s) [17]: 10700 pM/s
- Probe Cleavage (pM/s) [18]: 7500 pM/s
- Probe Cleavage (pM/s) [19]: 255 pM/s
- Probe Cleavage Kcat/KM [19]: 24000 M⁻¹ s⁻¹
- Probe Cleavage (pM/s) [20]: 7380 pM/s
- Probe Cleavage (pM/s) [21]: 7430 pM/s
- Probe Cleavage (pM/s) [22]: 19300 pM/s
